Results taken from patent US20210002644, “ANTI-CHYMASE APTAMER AND USE FOR SAME” (RIBOMIC INC., published 2021).

T1: chymase (native, human skin mast cell) (Homo sapiens, UniProt P23946 P23946:22-247)
T1 sequence: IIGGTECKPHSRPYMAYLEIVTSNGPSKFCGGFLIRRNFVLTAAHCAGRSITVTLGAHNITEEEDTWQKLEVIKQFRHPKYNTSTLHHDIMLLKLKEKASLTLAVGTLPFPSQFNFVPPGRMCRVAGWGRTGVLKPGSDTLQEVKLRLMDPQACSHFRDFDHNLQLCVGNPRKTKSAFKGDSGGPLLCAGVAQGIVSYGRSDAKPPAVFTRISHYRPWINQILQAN

B1: SEQ ID NO: 33(1) (mixed)
RNA: AUGAUCGGACAUAACUAAUUAGGGGUGUCAA
modifications: idT-A(M)U(M)G(M)A(M)U(F)C(F)G(M)G(M)A(M)C(M)A(M)U(M)AAC(M)U(F)AAU(F)U(M)AG(M)GG(M)G(M)TG(M)U(M)C(M)A(M)A(M)-idT (F=2'-F, M=2'-OMe)
B2: SEQ ID NO: 33(11) (mixed)
RNA: B1 RNA
modifications: idT-A(M)U(M)G(M)A(M)U(F)C(F)G(M)G(M)A(M)C(M)A(M)U(M)AAC(M)U(F)A(M)A(M)TU(M)A(M)G(M)GG(M)G(M)TG(M)U(M)C(M)A(M)A(M)-idT (F=2'-F, M=2'-OMe)
B3: SEQ ID NO: 33(4) (mixed)
RNA: B1 RNA
modifications: idT-A(PHE)U(M)G(M)A(M)U(F)C(F)G(M)G(M)A(M)C(F)A(M)U(M)AAC(M)U(F)A(M)A(M)U(F)U(M)A(M)G(M)GG(M)G(M)TG(M)TC(M)A(M)A(M)-idT (F=2'-F, M=2'-OMe, PHE=8-(propyl)phenyl-rA; printed 1J(F) read as U(F))
B4: SEQ ID NO: 33(8) (mixed)
RNA: B1 RNA
modifications: idT-A(M)U(M)G(M)A(M)U(F)C(F)G(M)G(M)A(M)C(M)A(M)U(M)AA(M)C(M)U(F)A(M)A(M)U(M)U(M)A(M)G(M)GG(M)G(M)TG(M)U(M)C(M)A(M)A(M)-idT (F=2'-F, M=2'-OMe)
B5: SEQ ID NO: 33(5) (mixed)
RNA: B1 RNA
modifications: idT-A(PHE)U(M)G(M)A(M)U(F)C(F)G(M)G(M)A(M)C(F)A(M)U(M)AAC(M)U(F)A(M)A(M)U(F)U(M)A(M)G(M)GG(M)G(M)TG(M)U(M)C(M)A(M)A(M)-idT (F=2'-F, M=2'-OMe, PHE=8-(propyl)phenyl-rA)
B6: SEQ ID NO: 33(2) (mixed)
RNA: B1 RNA
modifications: idT-A(M)U(M)G(M)A(M)U(F)C(F)G(M)G(M)A(M)C(F)A(M)U(M)AAC(M)U(F)AAU(F)U(M)AG(M)GG(M)G(M)TG(M)TC(M)A(M)A(M)-idT (F=2'-F, M=2'-OMe)
B7: SEQ ID NO: 33(16) (mixed)
RNA: B1 RNA
modifications: idT-A(M)U(M)G(M)A(M)U(F)C(F)G(M)G(M)A(M)C(M)A(M)U(M)AAC(M)U(F)A(M)A(M)U(M)U(M)A(M)G(M)GG(M)G(M)T(M)G(M)U(M)C(M)A(M)A(M)-idT (F=2'-F, M=2'-OMe)
B8: SEQ ID NO: 33(17) (mixed)
RNA: B1 RNA
modifications: idT-A(PHE)U(M)G(M)A(M)U(F)C(F)G(M)G(M)A(M)C(M)A(M)U(M)AAC(M)U(F)A(M)A(M)U(M)U(M)A(M)G(M)GG(M)G(M)TG(M)U(M)C(M)A(M)A(M)-idT (F=2'-F, M=2'-OMe, PHE=8-(propyl)phenyl-rA)
B9: SEQ ID NO: 33(10) (mixed)
RNA: B1 RNA
modifications: idT-A(M)U(M)G(M)A(M)U(F)C(F)G(M)G(M)A(M)C(M)A(M)U(M)AAC(M)TA(M)A(M)U(M)U(M)A(M)G(M)GG(M)G(M)TG(M)U(M)C(M)A(M)A(M)-idT (F=2'-F, M=2'-OMe)
B10: SEQ ID NO: 33(6) (mixed)
RNA: B1 RNA
modifications: idT-A(M)U(M)G(M)A(M)U(F)C(F)G(M)G(M)A(M)C(F)A(M)U(M)AAC(M)U(F)A(M)A(M)U(M)U(M)A(M)G(M)GG(M)G(M)TG(M)U(M)C(M)A(M)A(M)-idT (F=2'-F, M=2'-OMe)
B11: SEQ ID NO: 33(3) (mixed)
RNA: B1 RNA
modifications: idT-A(PHE)U(M)G(M)A(M)U(F)C(F)G(M)G(M)A(M)C(M)A(M)U(M)AAC(M)U(F)A(M)A(M)U(F)U(M)A(M)G(M)GG(M)G(M)TG(M)U(M)C(M)A(M)A(M)-idT (F=2'-F, M=2'-OMe, PHE=8-(propyl)phenyl-rA)
B12: SEQ ID NO: 33(13) (mixed)
RNA: B1 RNA
modifications: idT-A(M)U(M)G(M)A(M)U(F)C(F)G(M)G(M)A(M)C(M)A(M)U(M)AAC(M)T(M)A(M)A(M)U(M)U(M)A(M)G(M)GG(M)G(M)TG(M)U(M)C(M)A(M)A(M)-idT (F=2'-F, M=2'-OMe)
B13: SEQ ID NO: 33(12) (mixed)
RNA: B1 RNA
modifications: idT-A(M)U(M)G(M)A(M)U(F)C(F)G(M)G(M)A(M)C(M)A(M)U(M)AAC(M)U(F)A(M)A(M)U(M)TA(M)G(M)GG(M)G(M)TG(M)U(M)C(M)A(M)A(M)-idT (F=2'-F, M=2'-OMe)
B14: SEQ ID NO: 33(7) (mixed)
RNA: B1 RNA
modifications: idT-A(M)U(M)G(M)A(M)U(F)C(F)G(M)G(M)A(M)C(M)A(M)U(M)A(M)AC(M)U(F)A(M)A(M)U(M)U(M)A(M)G(M)GG(M)G(M)TG(M)U(M)C(M)A(M)A(M)-idT (F=2'-F, M=2'-OMe)
B15: SEQ ID NO: 33(14) (mixed)
RNA: B1 RNA
modifications: idT-A(M)U(M)G(M)A(M)U(F)C(F)G(M)G(M)A(M)C(M)A(M)U(M)AAC(M)U(F)A(M)A(M)T(M)U(M)A(M)G(M)GG(M)G(M)TG(M)U(M)C(M)A(M)A(M)-idT (F=2'-F, M=2'-OMe)
B16: SEQ ID NO: 33(15) (mixed)
RNA: B1 RNA
modifications: idT-A(M)U(M)G(M)A(M)U(F)C(F)G(M)G(M)A(M)C(M)A(M)U(M)AAC(M)U(F)A(M)A(M)U(M)T(M)A(M)G(M)GG(M)G(M)TG(M)U(M)C(M)A(M)A(M)-idT (F=2'-F, M=2'-OMe)
B17: SEQ ID NO: 17(20) (mixed)
RNA: GAUGAUCGGACAUAACAUUGUUGGGGUGUCAA
modifications: idT-G(M)A(M)U(F)G(M)A(M)U(F)C(F)G(M)G(M)A(M)C(F)A(M)U(F)AAsC(F)A(M)TTG(M)U(F)U(F)G(M)GG(M)G(M)TG(M)TCA(M)A(M)-idT (F=2'-F, M=2'-OMe, s=PS)

Legend:
Assay in all cases: inhibition; angiotensin I substrate
Conditions in all cases: tags: Calbiochem Human Skin
[1] = target: T1, chymase (native, human skin mast cell)
Experimental: (§1) The total volume of solution for an enzyme reaction in the assay was set to 50 μL, and the reaction was performed in solution C buffer. At first, native (manufactured by Calbiochem) was diluted with solution C to give 5 μL thereof. Here, the native is chymase purified from human skin mast cell. The nucleic acid was serially diluted with solution C at a concentration of 0.0027-2 μM to give 25 μL thereof. The chymase solution (5 μL) and the nucleic acid solution (25 μL) were mixed, and the mixture was incubated at 37° C. for 5 min. On the other hand, […] angiotensin I (manufactured by PEPTIDE […], INC.) was prepared in solution C to give 20 μL thereof, which was incubated at 37° C. for 5 min. The angiotensin I solution was added to a mixture of chymase and nucleic acid to start an enzyme reaction. The final chymase concentration of the reaction solution was 0.5 nM, and the final substrate concentration was 50 μM. After reaction at 37° C. for 90 min, ice-cooled 30% trichloroacetic acid solution (25 μL) was added to quench the reaction. The whole mixture was centrifuged at 4° C., 14000 rpm for 10 min, and the supernatant (30 μL) was used for the next fluorescence induction reaction.
(§2) The above-mentioned supernatant (30 μL) was added to a 96 well plate (black, manufactured by Costar), a solution (15 μL) of 2% o-phthalaldehyde (manufactured by SIGMA) in methanol and 0.3M NaOH solution (170 μL) were added to each well, and the mixture was incubated at room temperature for 10 min. Then, 3M HCl solution (25 μL) was added to quench the reaction. The plate was set on a microplate reader SpectraMax190 (manufactured by Molecular device) and the fluorescence intensity was measured at an excitation wavelength of 355 nm and a fluorescence wavelength of 460 nm.
The nucleic acids of SEQ ID NO: 11-20 were all produced by chemical synthesis. In the evaluation of SEQ ID NO: 11-20, a method similar to the evaluation method of inhibitory activity against chymase shown in Example 1 by using angiotensin I as a substrate was used for measurement. […] The IC₅₀ value is a mean of 2 or 3 measurements.

[2] = target: T1, chymase (native, human skin mast cell); remark: listed apart in the source
Experimental: as §1, §2
All nucleic acids of SEQ ID NO: 33(1)-33(18) were prepared by chemical synthesis. The aptamers shown by these sequences were measured by a method similar to the inhibitory activity evaluation method for chymase inhibitory activity shown in Example 1 by using angiotensin I as a substrate. In the Table, the IC₅₀ value is a mean of 2 or 3 measurements.

[3] = target: T1, chymase (native, human skin mast cell); remark: listed apart in the source
Experimental: as §1, §2
All nucleic acids of SEQ ID NO: 17(1)-17(25) were prepared by chemical synthesis. In the evaluation of SEQ ID NO: 17(1)-17(25), a method similar to the evaluation method of inhibitory activity against chymase shown in Example 1 by using angiotensin I as a substrate was used for measurement. In the Table, the IC₅₀ value is a mean of 2 or 3 measurements.

Row | Binder | IC50 [2] [nM] | other results
1 | GAUGAUCGGACAUAACAUUGUUGGGGUGUCAAGCC (ssRNA, 2'-F pyrimidines (U, C); purines 2'-OH) [SEQ ID NO: 15] |  | IC50 [1]: 1.4 nM
2 | GAUGAUCGGACAUAACAUUGUUGGGGUGUCA (ssRNA, 2'-F pyrimidines (U, C); purines 2'-OH) [SEQ ID NO: 20] |  | IC50 [1]: 1.8 nM
3 | B1 | 0.074 | 
4 | B2 | 0.051 | 
5 | B3 | 0.072 | 
6 | B4 | 0.061 | 
7 | B5 | 0.076 | 
8 | B6 | 0.078 | 
9 | B7 | 0.063 | 
10 | B8 | 0.038 | 
11 | B9 | 0.071 | 
12 | B10 | 0.053 | 
13 | B11 | 0.071 | 
14 | B12 | 0.069 | 
15 | B13 | 0.048 | 
16 | B14 | 0.071 | 
17 | B15 | 0.075 | 
18 | B16 | 0.072 | 
19 | AUCGGACAUAACAUUGUUGGGGUGUCAA (ssRNA, 2'-F pyrimidines (U, C); purines 2'-OH) [SEQ ID NO: 19] |  | IC50 [1]: 14.4 nM
20 | GGGUCAGAUGAUCGGACAUAACAUUGUUGGGGUGUCAAGGCCC (ssRNA, 2'-F pyrimidines (U, C); purines 2'-OH) [SEQ ID NO: 11] |  | IC50 [1]: 54.7 nM
21 | GAUGAUCGGACAUAACAUUGUUGGGGUGUCAA (ssRNA, 2'-F pyrimidines (U, C); purines 2'-OH) [SEQ ID NO: 17] |  | IC50 [1]: 1.4 nM
22 | B17 |  | IC50 [3]: 0.18 nM
